According to the domain aggregation screens of Martell et al. (2025):

Assay: soluble fraction after stress (log2 fold change); higher = more stays soluble; pooled small domains, quantitative proteomics
Details: stress: 75 degC
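Further: 20 min heating vs room temperature control held 20 min.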

| Sequence | soluble fraction (log2) |
| --- | --- |
| HMTMQQGTISRLNHSRGFGFLTTPDGEDLFFHRTNVHETPFARLQVGDRVTYDVQVTPRGTRADKVQLNM | -0.261 |
| HMTMRFVVADGQNFGSIAQSKALEAVKKGNTEFNYKDVDYTVDIQSDDFYVVYQGRDIMGYASR | -1.11 |
| HMTMTIEITVNGKTKTLVAELSLADLLRDLGMTKGRIAVELNGHIVPRSQFSSKTISNLDSIEIVQ | -3.43 |
| HMTNADRYIGQEATVTEKISNELSTGAVRIGGLVWTARTVDNSEAEEGERVTVEAIEGAKLLVKRR | 0.132 |
| HMTNEPRLTNMGFNKMLIENYKMILEYQDFFIRISTQIGIININGFDLKLGEMTADEVLVTGKIESIDL | 0.429 |
| HMTNIDRLIGQTAIVKETINNKKEQGVVRINGMDWTARTEEIDEVILKGKPVEILDIQGIKLIVRKK | -0.545 |
| HMTNIELYQRLLNLGFTPAQAKILLVQYDETRLTDNLNYVDFKKQQGNIENLPAYTTTIIKKDVRL | -1.14 |
| HMTNIQFINLKMTDNHPWIHQYIKDIILPPQTRIVMIKRNDIKTIPKGERRIEKDDELILSAFESQT | -2.06 |
| HMTNKKIILEIFQNSDKPLIVEEISKKMFEKTGKKMILSTIYRNLKNMEDVGILKKIYNEDGSYMYIF | -1.02 |
| HMTNKQEYAYQWLKSSIIENKIKPSTLLVERHLSEMLHISRTPVRTALMRLADEGFVVISPGRGMVVA | -2.32 |
| HMTNQEFNAAFKPFLDYFPTTEMTKEKINIYYLALSDLSKEQLGSAFISMVKNRVYKNFPQVAEIRQYATN | -0.803 |
| HMTNTDYPGKVVPVDPDGKTLKPDGDASYNDKPGTKVKTPTVPGYTAEVPNVEVPVGGGDIKVTYHKKPV | -0.0351 |
| HMTNVYSLIGKRGIVVEDIDWQKGTGQVKIDGELWSVKTNEQINISKGTEVEVENIEGVKVFVKPI | -0.121 |
| HMTNYGTVRPGARGQAVTALQQALIRHGYKLTADGIYGRATRQAVRAFQQKHKLKVDGIVGSKTWALLLAD | -2.13 |
| HMTPDGNATVWSANGYGVRLRTGPGKGYAIIGVYSVGTTVKVLERGPAGGWDHIQVGSRVGYMMNEFLHYY | -3.16 |
| HMTPDLSEFKERLRQILPGEPIEVRTANDGIVLSGTVTSIAALDRALDLAERYAPDKVSNLLSVG | 0.149 |
| HMTPELTAEEREVLSLLGDEPRTLAELIAASGRDYAALSVLLMGLELSQAVRQLPGNRYERF | -0.84 |
| HMTPGPFLVYITGAVERPNVLVTLDYGSRVIDALNAAGGSRIDANLDLVNLAQRLVDGDQIHVPTLR | -1.17 |
| HMTPGPYETLKPAPLGSYIEPKIGFATAIEIARKEAVQLGIKTEAGGIWYGGDFPFYNVSFFDPDD | -0.842 |

| Sequence | soluble fraction (log2) |
| --- | --- |
| HMTPKVTVPDVTGQTFSSAKQILESLGFTVKQQGSTDETDQVIDQNPTSGEADKGATITLTTKSS | 0.0908 |
| HMTPPAQQPHEGLPTDETATDAKTLVQKSRWWLEEEQRQREAGNTAYAERIRLALIQLLYRAERA | -0.713 |
| HMTPQNAAAVLRYLSSGAIKGVGPSTAQRIVEKFGAESLDIIQNKPEELATIRGISLSKALAVSEEYNKQY | -0.289 |
| HMTPTFSNQDLIKAGLAGSPVAKRRRERLGELLGIGYGNAKQLLKRLDLFAIDRPTFERAVAQLDQEGK | -0.465 |
| HMTPVSQIATKDIEEKIDSLSDEYKDPFILHFKGFKYKEIADQLDIPIGTVKSRIFIARKKLIDLLPDY | 0.0524 |
| HMTQEHDESVNLGKRLLDQALSRFGTSYRQLKKSEIKRILQSSGASTFKYILHQIGLGNRVPLAIANLIV | -0.0539 |
| HMTQEMPAEVKKKADAFNNAMDEENYTEAKAILAELEQNTAPSYPLLLQMQTRYAFETASWE | 0.00338 |
| HMTQFSASSERAGAGGAYRTTLRAMEQNGDLLQISILLPDAVTAKHAATVWPERAQAIYTAILSELLK | -1.71 |
| HMTQGIDQISFSQFLDKVQSGEVTDVRISGSDITGTLKTGGKFETVAGNYEKIWDLLRENKVVFVVDSP | 0.332 |
| HMTQNSAITNRVLYMQRTLRQYGYAVPESGNFDRTTRAHAAEFLYNATGLPVRENQSVQEFYRAFQRVQG | -1.77 |
| HMTQRRLQSELDSIPGVGAGTRTKLLRTLGSVDAVLRASEAELLAAGANRRQVASIQAHAAAVER | -0.0213 |
| HMTQSQSLQSQFEQLEKAYQDNLHLLSPKQKLIIQEAGKIIQQLPQQAQIQAKVNLYQSLSAEISKESQQ | 0.1 |
| HMTQTDINQIETLVHEGNKLAAVKLLMDTAHIGLKEAKDIIDNFFLGKQTDLQAAVAQVQTR | 0.902 |
| HMTRHIQVNDSIASTPIEDVYFSTRTYNALLNNGISVIGDLSKYTHDDLYASFQGLGRAGVLEIEAYLRQD | -1.43 |
| HMTRHSSVDFAGYILRNKENEPIFGFGKHKGKTVVEVLQREQGYFGWLMEADFPLYTKKVLTAIRLNTLNS | -0.261 |
| HMTRLDLQNAFRVLPPEIQPAAVLFFLQERKQREIAKILGIGLPLVKYRIRKARELLAQFLRKEA | -0.225 |
| HMTRNEFLTALRGRLSALPKEEQDAALKYYEEYFDEAESEEDAARQLGSPDSIAEKILADYA | 0.418 |
| HMTRQNTAVQQSDMAHHKASELTEGMSIVHSHFGRGTIISIETADDPRVTVDFSSEGRKTMLLRFAKFAIE | -0.941 |
| HMTRQRQLIYNIIQRADDHPTAEMIYARAKAEMPSIAFGTVYRNLKLMVDAGEILHIPVAGEPDRYDK | -1.96 |
